We go through three molecules from publication PMC5643494, “TRPA1–FGFR2 binding event is a regulatory oncogenic driver modulated by miRNA-142-3p” (Nature Communications, 2017).

The target in test [1] is TRPA1-GFP truncated of 5 ankyrin repeats (Δ5-GFP). The test is described as follows: FRET or BRET; FLIM-FRET in fixed serum-starved HEK 293T cells co-expressing FGFR2-RFP with Δ5-GFP or Δ10-GFP; shift of GFP lifetime against empty GFP vector. (In general: BRET reads energy transfer from a luciferase to a nearby fluorophore.)
The target of test [2] is T1, purified full-length human TRPA1 (human, UniProt O75762 1-1119, biotinylated with EDC-based carboxyl-biotinylation reagent (streptavidin pull-down); labeled with Alexafluor 488 (MST); unlabelled in the GST pull-down).
T1 construct: human TRPA1, full length; kept in PBS with 0.014% F-14; also called hTRPA1; full-length purified TRPA1; source: Pichia pastoris, purified (Ni-NTA)
The experiment in a line: pull-down; GST constructs on glutathione-sepharose beads incubated with purified full-length TRPA1; western blot. Conditions: both partners purified. On the technique in general: Immunoblotting shows a protein as a band on a membrane.

Changes are numbered by the printed parent chain. Names and notes keep the numbering of the source.

T1 sequence (O75762 whole entry): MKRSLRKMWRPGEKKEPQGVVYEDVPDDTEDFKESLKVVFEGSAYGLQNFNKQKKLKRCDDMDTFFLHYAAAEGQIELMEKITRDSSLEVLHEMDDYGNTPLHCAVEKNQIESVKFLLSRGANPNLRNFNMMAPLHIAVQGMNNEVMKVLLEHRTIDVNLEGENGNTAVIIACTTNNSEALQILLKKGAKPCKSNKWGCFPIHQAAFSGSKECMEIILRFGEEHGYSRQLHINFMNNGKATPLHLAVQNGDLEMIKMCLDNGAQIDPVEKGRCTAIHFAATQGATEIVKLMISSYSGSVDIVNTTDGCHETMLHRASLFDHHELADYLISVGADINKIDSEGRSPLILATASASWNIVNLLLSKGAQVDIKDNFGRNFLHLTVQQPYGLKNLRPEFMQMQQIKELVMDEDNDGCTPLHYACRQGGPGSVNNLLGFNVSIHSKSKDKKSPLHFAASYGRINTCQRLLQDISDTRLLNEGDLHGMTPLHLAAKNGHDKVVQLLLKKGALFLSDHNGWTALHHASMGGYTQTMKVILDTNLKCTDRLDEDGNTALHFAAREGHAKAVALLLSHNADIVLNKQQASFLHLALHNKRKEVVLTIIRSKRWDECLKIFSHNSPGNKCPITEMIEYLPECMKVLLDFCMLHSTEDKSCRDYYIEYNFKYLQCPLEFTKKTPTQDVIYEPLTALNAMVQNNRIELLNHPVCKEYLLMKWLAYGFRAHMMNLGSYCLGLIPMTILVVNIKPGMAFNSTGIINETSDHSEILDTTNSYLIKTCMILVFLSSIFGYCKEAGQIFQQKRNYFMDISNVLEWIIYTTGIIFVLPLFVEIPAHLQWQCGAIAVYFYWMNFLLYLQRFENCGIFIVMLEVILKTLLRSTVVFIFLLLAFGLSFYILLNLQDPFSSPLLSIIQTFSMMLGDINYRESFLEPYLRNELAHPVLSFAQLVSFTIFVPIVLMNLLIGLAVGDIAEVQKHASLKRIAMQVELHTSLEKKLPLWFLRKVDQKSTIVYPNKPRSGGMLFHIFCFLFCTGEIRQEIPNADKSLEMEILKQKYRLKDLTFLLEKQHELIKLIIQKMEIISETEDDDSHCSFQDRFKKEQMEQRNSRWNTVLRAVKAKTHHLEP
Chain of TRPA1-GFP truncated of 5 ankyrin repeats (Δ5-GFP) (O75762 whole entry, stated change not applied, the tested form may be a part): as the sequence (O75762 whole entry) above

For “FGFR2-RFP (from UniProt P21802 22-821) (receptor)”, the shift of GFP fluorescence lifetime (FLIM-FRET) in test [1] came out at 0.09 ns.

B1: GST fusion of FGFR2 residues 764-821 with P804A (C4) (domain or fragment, UniProt P21802 764-821, looked up)
chain: TTNEEYLDLSQPLEQYSPSYPDTRSSCSSGDDSVFSPDPMAYEPCLPQYPHINGSVKT
notes: FGFR2, last 58 amino acids, residues 764-821, P804A
In the case of B1, the binding result in test [2] is “binds”.

B2: GST fusion of the last 58 amino acids of FGFR2 (residues 764-821), wild-type construct (C) (domain or fragment, UniProt P21802 764-821, looked up)
chain: B1 chain with A41P
notes: FGFR2, last 58 amino acids, residues 764-821; PGEX vector
In the case of B2, the binding result in test [2] was “binds”.
